# Test results reported in article PMC7360973.
# System: Hsf1 wt (trimer) (human)
# Test: fluorescence polarization
# Details: printed as <= 5 nM; 25 C; Hsf1 SEC buffer: 25 mM HEPES/NaOH pH 7.5, 150 mM NaCl, 10% glycerol, 2 mM DTT; FP at 25 C (5 nM DNA titration; 25 nM DNA and 100 nM trimer for dissociation) …
substance,measurement,value
3xHSE DNA (Alexa Fluor 488),Kd,< 5 nM
